Reference: paper PMC4464401, “Biochemical properties and yields of diverse bacterial laccase-like multicopper oxidases expressed in Escherichia coli” (Scientific Reports, 2015)
One block for each molecule: values may come before it.

What was measured:
Assay in all cases: spectrophotometric oxidation, Michaelis-Menten fit with uncompetitive substrate inhibition
B. coagulans LMCO (CotA) = biological target: T1, B. coagulans LMCO (CotA) (Heyndrickxia coagulans, UniProt A0AAN0WB15); format: biochemical; settings: 30 °C
T1 construct: gene SB48_HM08orf01352
T1 sequence (A0AAN0WB15 1-522): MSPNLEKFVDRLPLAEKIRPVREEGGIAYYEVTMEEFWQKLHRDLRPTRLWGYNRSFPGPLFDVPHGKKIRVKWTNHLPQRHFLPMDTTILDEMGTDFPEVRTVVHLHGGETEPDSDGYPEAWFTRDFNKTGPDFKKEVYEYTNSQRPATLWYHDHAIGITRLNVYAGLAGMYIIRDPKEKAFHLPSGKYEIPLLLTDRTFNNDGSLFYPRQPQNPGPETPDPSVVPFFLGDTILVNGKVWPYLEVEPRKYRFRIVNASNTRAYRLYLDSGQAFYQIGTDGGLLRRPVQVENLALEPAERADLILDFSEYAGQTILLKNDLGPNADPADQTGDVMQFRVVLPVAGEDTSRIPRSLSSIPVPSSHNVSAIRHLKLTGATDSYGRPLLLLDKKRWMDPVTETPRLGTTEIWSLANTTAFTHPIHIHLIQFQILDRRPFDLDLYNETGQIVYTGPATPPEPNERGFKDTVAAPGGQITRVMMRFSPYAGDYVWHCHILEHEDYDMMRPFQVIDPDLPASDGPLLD
From the text: spectrophotometric oxidation, Michaelis-Menten fit with uncompetitive substrate inhibition on B. coagulans LMCO (CotA)

[1] = substrate: CCn1c(=NN=c2sc3cc(S(=O)(=O)O)ccc3n2CC)sc2cc(S(=O)(=O)O)ccc21; format: biochemical, Shouchella clausii; settings: pH 4.0, McIlvaine buffer, 30 °C, pH 4.0
From the text: (§1) spectrophotometric oxidation, Michaelis-Menten fit with uncompetitive substrate inhibition on B. clausii LMCO (CotA)

[2] = substrate: COc1cccc(OC)c1O; format: biochemical, Shouchella clausii; settings: pH 8.0, McIlvaine buffer, 30 °C, pH 8.0
From the text: as §1

B. coagulans (B. coagulans LMCO (CotA); pH 4.0, McIlvaine buffer): 0.94 ± 0.11 mM
Molecule: CCn1c(=NN=c2sc3cc(S(=O)(=O)O)ccc3n2CC)sc2cc(S(=O)(=O)O)ccc21 [ABTS, 2′-azino-bis(3-ethylbenzthiazoline-6-sulphonic acid)]

B. coagulans (B. coagulans LMCO (CotA); pH 7.5, McIlvaine buffer): 36 ± 9.8 mM
Molecule: COc1cccc(OC)c1O [2,6-DMP, 2,6-dimethoxyphenol]

B1: B. clausii LMCO (CotA) (Shouchella clausii KSM-K16) (protein)
chain: MELEKFVDPMPIMKTAIPKKTSKDGDYYEIEMKEFSQKLHRDLNPTRLWGYDGQFPGPTIEVMRGKPARIKWMNNLPDTHFLPIDRSIHHVAHEPEVRTVVHLHGSETTPASDGYPEAWFTKDFAEVGSFFEQETYEYPNDQRAATLWYHDHAMGITRLNVYAGLSGLYIIRDPREEQLNLPKGEFDIPLLIQDRSFNDDGSLFYPAQPANPAPNLPNPSVLPFFVGDTILVNGKVWPYLQVEPRKYRFRILNGSNSRSYQLALDSEAPFYQIASDGGLLRRTVSLQAFDIRPAERIEAIIDFSKFEGQTITLKNNASTDATADVMQFQVVLPLSGEDTSIIPQNLSYIPSLQQNDVKRIRNLKISGTTDEYGRPLLLLNNKLWSDPVEEKPCLGTTEIWSFVNVTNVPHPMHIHLVQFQLLDHRAFNVELYNENGQIELVGPTIPPKINERGWKDTITAPAGQITRVIARFAPFSGYYVWHCHILEHEDYDMMRPFVVIDPKTEKERR
Km [1]: 0.132 ± 0.011 mM
kcat [1]: 90 ± 2.3 s⁻¹
Km [2]: 8.535 ± 2.394 mM
kcat [2]: 65 ± 15.2 s⁻¹
